Experimental data taken from US12258584B2, “Methods and systems for converting precursor cells into intestinal tissues through directed differentiation” (Children's Hospital Medical Center, priority 2010, dated 2025).
Entries after “also recorded” stand apart in the source; their conditions may differ.

What was measured:
Format in all cases: cell-based, human
hESC-H9 = assay: Affymetrix microarray analysis of transcript levels during DE formation; conditions: 3-day activin treated vs undifferentiated cultures, label = gene symbol of the transcript
Method: (§1) FIGS. 6a and 6b illustrate exemplary embodiments in accordance with the present invention, depicting characterization of DE formation from hESC and iPSC lines by immuno-fluorescence (IF) and Microarray analysis. (a) Undifferentiated hESCs stained with the pluripotency marker OCT4 (green) were treated for 3 days with ActivinA. […] (b) Transcriptional profile of DE induction. hESC-H9 and iPSC lines 3.5, 3.6 and 3.12 were analyzed before and after DE formation (activin differentiation) by Affymetrix DNA microarray analysis.
(§2) For microarray analysis, RNA was isolated from undifferentiated and 3-day activin treated hESC and iPSC cultures and used create target DNA for hybridization to Affymetrix Human 1.0 Gene ST Arrays using standard procedures (Affymetrix, Santa Clara, CA). Independent biological triplicates were performed for each cell line and condition. Affymetrix microarray Cel files were subjected to Robust Multichip Average (RMA) normalization in GeneSpring 10.1. Probe sets were first filtered for those that are overexpressed or underexpressed and then subjected to statistical analysis for differential expression by 3 fold or more between undifferentiated and differentiated cultures with p<0.05 using the Students T-test. Log 2 gene expression ratios were then subjected to hierachical clustering using the standard correlation distance metric as implemented in GeneSpring.

iPSC line 3.12 = assay: as above; conditions: 3-day activin treated vs undifferentiated cultures, label = gene symbol of the transcript
Method: as §1, §2

iPSC3.4 = assay: as above; conditions: 3-day activin treated vs undifferentiated cultures, label = gene symbol of the transcript
Method: as §2

H9 hESCs = assay: Hindgut spheroid formation from hESC-H9 definitive endoderm after growth factor treatment; conditions: for Average # organoids per well / Total # organoids (# organoids/wells counted): hESC-H9 definitive endoderm
Method: (§3) Differentiation of PSCs into Definitive Endoderm (DE). Differentiation into Definitive Endoderm was carried out as previously described. Briefly, a 3 day ActivinA (R&D systems) differentiation protocol was used. Cells were treated with ActivinA (100 ng/ml) for three consecutive days in RPMI 1640 media (Invitrogen) with increasing concentrations of 0%, 0.2%, 2% HyClone defined FBS (dFBS) (Thermo Scientific).
(§4) The following tables illustrate the effects of growth factor treatment of hESCs and iPSCs. Generation of hindgut spheroids was tracked for (Table 1A) days 2-5 following growth factor treatment for H9 hESCs or (Table 1B) days 2-4 of growth factor treatment for iPSCs. Definitive endoderm was treated with either 500 ng/ml of FGF4 alone or 500 ng/ml of FGF4+Wnt3a. For both HESCs and iPSCs, hindgut spheroids formed much more robustly under FGF4+Wnt3a conditions. […] Over the course of 4 days, FGF4+Wnt3a treated H9 endoderm generated an average of 4.5 fold more spheroids than that treated with FGF4 alone.
(§5) Generation of hindgut spheroids was tracked for days 2-5 of growth factor treatment (H9 hESCs, Table 1A) or days 2-4 of growth factor treatment (iPSCs, Table 1B) for endoderm being given either 500 ng/ml FGF4 alone or 500 ng/ml FGF4+Wnt3a. In both cell lines, hindgut spheroids were much more robustly generated in FGF4+Wnt3a conditions. Over the course of 4 days, FGF4+Wnt3a treated H9 endoderm generated an average of 4.5 fold more spheroids than FGF4 treated alone.
(§6) Directed differentiation into hindgut and intestinal organoids. After differentiation into definitive endoderm, cells were incubated in 2% dFBS-DMEM/F12 with either 50 or 500 ng/ml FGF4 and/or 50 or 500 ng/ml Wnt3a (R&D Systems) for 2-4 days. After 2 days with treatment of growth factors, 3-dimensional floating spheroids were present in the culture. 3-dimensional spheroids were transferred into an in vitro system previously described to support intestinal growth and differentiation. Briefly, spheroids were embedded in Matrigel (BD Bioscience #356237) containing 500 ng/ml R-Spondin1 (R&D Systems), 100 ng/ml Noggin (R&D Systems) and 50 ng/ml EGF (R&D Systems). After the Matrigel solidified, media (Advanced DMEM/F12 (Invitrogen) supplemented with L-Glutamine, […], N2 supplement (R&D Systems), B27 supplement (Invitrogen), and Pen/Strep containing growth factors was overlaid and replaced every 4 days.

iPSC-3.5 = assay: Hindgut spheroid formation from iPSC-3.5 definitive endoderm after growth factor treatment; conditions: 500 ng/ml; for Average # organoids per well / Total # organoids (# organoids/wells counted): iPSC-3.5 definitive endoderm
Method: as §3, §4, §5, §6

[1] = system: H9-HES cells differentiated into definitive endoderm; assay: Posteriorization of definitive endoderm: foregut (ALB, PDX1) and hindgut (CDX2) marker expression by RT-qPCR and immunofluorescence; conditions: DE treated 24-48 hours; up to 500 ng/ml; RT-qPCR relative to no growth factor control
Method: Differentiation of DE in Permissive Media (Differentiation Protocol for FIG. 1). After differentiation into definitive endoderm, cells were incubated in DMEM/F12 plus 2% defined fetal bovine serum (dFBS) with either 0, 50, or 500 ng/ml of FGF4 and/or 0, 50, or 500 ng/ml of Wnt3a (R&D Systems) for 6, 48, or 96 hours. Cultures were then grown in permissive media consisting of DMEM plus 10% fetal bovine serum (FBS) for an additional 7 days.
FIGS. 1a through 1d illustrate exemplary embodiments of the present invention. FGF4 and Wnt3a act synergistically in a temporal and dose-dependent manner to specify stable posterior endoderm fate. ActivinA (100 ng/ml) was used to differentiate H9-HES cells into definitive endoderm (DE). DE was treated with the posteriorizing factors FGF4 (50, 500 ng), Wnt3a (50, 500 ng) or both for 6, 48 or 96 hours. Cells were then cultured in a permissive medium without growth factors for an additional seven days and analyzed for expression of foregut markers (ALB, PDX1) and the hindgut marker (CDX2) by RT-qPCR (a) and immunofluorescence (b-d). FGF4/Wnt-mediated changes in marker expression in (a) is relative to 3-day activin treated DE cultures that were grown for identical lengths of time in the absence of FGF4 or Wnt3a (control). […] Error bars denote standard deviation of triplicates. Significance is shown by; * (p<0.05), ^ (p<0.001), # (p<0.0001).
FIGS. 7a and 7b illustrate exemplary embodiments in accordance with the present invention, depicting time and concentration dependent induction of CDX2 by FGF4 and Wnt3a. (a) FGF4 and Wnt3a up-regulate CDX2 in a concentration dependant manner. 3-day ActivinA treated hESCs were treated for 48 hours with Wnt3a at 50 ng/ml or 500 ng/ml or FGF4 at 50 ng/ml or 500 ng/ml, or increasing concentrations of FGF4+Wnt3a. Cells were analyzed after 48 hours of treatment. […] CDX2 expression was normalized to the internal control beta-tubulin, and is shown relative to a 48 hour control cultured in the absence of growth factors. (b) FGF4 and Wnt3a up-regulate CDX2 in a time dependant manner. 48 hours of exposure to FGF4+Wnt3a was required for the most robust induction of CDX2. All time points shown are set relative to a 0 hour no growth factor control. 500 ng/ml of FGF4, Wnt3a or FGF4+Wnt3a was used for all time points. Note that 24 hour and 48 controls, in the absence of growth factors, show a significant and spontaneous up-regulation of CDX2. Error bars denote standard deviation of triplicates. Significance is shown by; * (p<0.05)
RNA was isolated using the Nucleospin II RNA isolation kit (Clonetech). […] Finally, qPCR was carried out using Quantitect SybrGreen MasterMix (Qiagen) on a Chromo4 Real-Time PCR (BioRad). […]

[2] = 500 ng/ml, 2 days (48 h) of GF treatment
[3] = 500 ng/ml, 3 days (72 h) of GF treatment
[4] = 500 ng/ml, 4 days (96 h) of GF treatment
[5] = 500 ng/ml, 5 days (120 h) of GF treatment

Molecule: NODAL
- DIFF'D-H9] VS [IFF'D-H9] (folds), variation of transcript level during DE formation (hESC-H9): 5.66 folds
- [DIFF'D-IPSC3.12] VS [IFF'D-IPSC3.12] (folds), variation of transcript level during DE formation (iPSC line 3.12): 5.77 folds
- [Diff'd-iPSC3.4] vs [Undiff d-iPSC3.4] (folds), variation of transcript level during DE formation (iPSC3.4): 5.00 folds

Molecule: NPPB
- DIFF'D-H9] VS [IFF'D-H9] (folds), variation of transcript level during DE formation (hESC-H9): 2.88 folds
- [DIFF'D-IPSC3.12] VS [IFF'D-IPSC3.12] (folds), variation of transcript level during DE formation (iPSC line 3.12): 3.62 folds
- [Diff'd-iPSC3.4] vs [Undiff d-iPSC3.4] (folds), variation of transcript level during DE formation (iPSC3.4): 3.57 folds

Molecule: DKK1
- DIFF'D-H9] VS [IFF'D-H9] (folds), variation of transcript level during DE formation (hESC-H9): 9.66 folds
- [DIFF'D-IPSC3.12] VS [IFF'D-IPSC3.12] (folds), variation of transcript level during DE formation (iPSC line 3.12): 6.27 folds
- [Diff'd-iPSC3.4] vs [Undiff d-iPSC3.4] (folds), variation of transcript level during DE formation (iPSC3.4): 7.27 folds

B1: FGF4: fibroblast growth factor 4, soluble growth factor (R&D Systems) known to posteriorize endoderm (protein, UniProt P08620 31-206, looked up)
Fibroblast growth factor 4: APTAPNGTLEAELERRWESLVALSLARLPVAAQPKEAAVQSGAGDYLLGIKRLRRLYCNVGIGFHLQALPDGRIGGAHADTRDSLLELSPVERGVVSIFGVASRFFVAMSSKGKLYGSPFFTDECTFKEILLPNNYNAYESYKYPGMFIALSKNGKTKKGNRVSPTMKVTHFLPRL
- CDX2 staining of spheroids / 3D structures (H9 hESCs; CDX2 immunostaining of treated DE cultures): weakly CDX2+
- fold fewer spheroids generated (versus FGF4+Wnt3a treated cultures) (H9 hESCs; Table 1A, H9 hESC definitive endoderm): 4-10 fold
- Average # organoids per well (H9 hESCs; [2]): 0
- Total # organoids (# organoids/wells counted) (H9 hESCs; [2]): 0/5
- Average # organoids per well (H9 hESCs; [3]): 0
- Total # organoids (# organoids/wells counted) (H9 hESCs; [3]): 0/5
- Average # organoids per well (H9 hESCs; [4]): 8.8
- Total # organoids (# organoids/wells counted) (H9 hESCs; [4]): 44/5
- Average # organoids per well (H9 hESCs; [5]): 4.75
- Total # organoids (# organoids/wells counted) (H9 hESCs; [5]): 19/4
- Average # organoids per well (iPSC-3.5; 2 days (48 h) of GF treatment): 0
- Total # organoids (# organoids/wells counted) (iPSC-3.5; 2 days (48 h) of GF treatment): 0/4
- Average # organoids per well (iPSC-3.5; 3 days (72 h) of GF treatment): 2.5
- Total # organoids (# organoids/wells counted) (iPSC-3.5; 3 days (72 h) of GF treatment): 10/4
- Average # organoids per well (iPSC-3.5; 4 days (96 h) of GF treatment): 3.5
- Total # organoids (# organoids/wells counted) (iPSC-3.5; 4 days (96 h) of GF treatment): 14/4
- induction of hindgut marker CDX2 expression / posterior fate [1]: neither factor alone was sufficient to robustly promote a posterior fate; also recorded: modest changes in CDX2 expression

B2: Wnt3a: soluble Wnt ligand (R&D Systems), growth factor known to posteriorize endoderm (protein, UniProt P56704 19-352, looked up)
Protein Wnt-3a: SYPIWWSLAVGPQYSSLGSQPILCASIPGLVPKQLRFCRNYVEIMPSVAEGIKIGIQECQHQFRGRRWNCTTVHDSLAIFGPVLDKATRESAFVHAIASAGVAFAVTRSCAEGTAAICGCSSRHQGSPGKGWKWGGCSEDIEFGGMVSREFADARENRPDARSAMNRHNNEAGRQAIASHMHLKCKCHGLSGSCEVKTCWWSQPDFRAIGDFLKDKYDSASEMVVEKHRESRGWVETLRPRYTYFKVPTERDLVYYEASPNFCEPNPETGSFGTRDRTCNVSSHGIDGCDLLCCGRGHNARAERRREKCRCVFHWCCYVSCQECTRVYDVHTCK
- in vitro gut-tube morphogenesis / spheroid formation (H9 hESCs; hESC definitive endoderm, 500 ng/ml): never observed; also recorded: never formed spheroids; also recorded: not observed
- spheroid formation (iPSC-3.5; iPSC definitive endoderm): never formed spheroids
- induction of hindgut marker CDX2 expression / posterior fate [1]: neither factor alone was sufficient to robustly promote a posterior fate; also recorded: modest changes in CDX2 expression
